The text below walks through data of publication PMC12138080 (Acta Pharmaceutica Sinica. B, 2025).

In the assay the target is T1, Human GRK2 protein (His Tag) (human, UniProt P25098 1-689).
T1 sequence: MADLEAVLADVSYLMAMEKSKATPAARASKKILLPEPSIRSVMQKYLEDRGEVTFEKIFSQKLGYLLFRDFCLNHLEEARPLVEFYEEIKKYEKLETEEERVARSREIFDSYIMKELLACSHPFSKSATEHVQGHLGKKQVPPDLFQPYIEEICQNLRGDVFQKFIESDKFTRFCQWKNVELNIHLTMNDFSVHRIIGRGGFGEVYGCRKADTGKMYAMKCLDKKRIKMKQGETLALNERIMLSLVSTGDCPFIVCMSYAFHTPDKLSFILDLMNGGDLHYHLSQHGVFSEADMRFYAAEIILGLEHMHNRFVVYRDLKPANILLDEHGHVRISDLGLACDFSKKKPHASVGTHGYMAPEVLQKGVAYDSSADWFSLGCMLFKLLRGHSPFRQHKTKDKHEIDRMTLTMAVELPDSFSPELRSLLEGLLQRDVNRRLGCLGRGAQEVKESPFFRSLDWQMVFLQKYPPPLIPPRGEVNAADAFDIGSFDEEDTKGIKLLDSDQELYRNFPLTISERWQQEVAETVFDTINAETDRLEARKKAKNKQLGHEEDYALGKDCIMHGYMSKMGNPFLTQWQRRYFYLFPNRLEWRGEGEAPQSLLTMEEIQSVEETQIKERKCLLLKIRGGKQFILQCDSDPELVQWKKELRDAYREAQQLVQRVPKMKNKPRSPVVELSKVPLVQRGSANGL
Kind of assay: SPR.

B1: Human TRAF2 protein (His Tag) (natural protein)
chain: MAAASVTPPGSLELLQPGFSKTLLGTKLEAKYLCSACRNVLRRPFQAQCGHRYCSFCLASILSSGPQNCAACVHEGIYEEGISILESSSAFPDNAARREVESLPAVCPSDGCTWKGTLKEYESCHEGRCPLMLTECPACKGLVRLGEKERHLEHECPERSLSCRHCRAPCCGADVKAHHEVCPKFPLTCDGCGKKKIPREKFQDHVKTCGKCRVPCRFHAIGCLETVEGEKQQEHEVQWLREHLAMLLSSVLEAKPLLGDQSHAGSELLQRCESLEKKTATFENIVCVLNREVERVAMTAEACSRQHRLDQDKIEALSSKVQQLERSIGLKDLAMADLEQKVLEMEASTYDGVFIWKISDFARKRQEAVAGRIPAIFSPAFYTSRYGYKMCLRIYLNGDGTGRGTHLSLFFVVMKGPNDALLRWPFNQKVTLMLLDQNNREHVIDAFRPDVTSSSFQRPVNDMNIASGCPLFCPVSKMEAKNSYVRDDAIFIKAIVDLTGL
The molecule B1 registered a Kd of 31.2 nM.
